Results: patent US9163218B2, “Method for increasing the efficiency of inducing pluripotent stem cells” (GUANGZHOU INSTITUTES OF BIOMEDICINE AND HEALTH, CHINESE …, priority 2011, dated 2015)

System: OG2 mouse embryonic fibroblasts
Assay: Induction of pluripotent stem cells (reprogramming) from OG2 mouse embryonic fibroblasts; GFP fluorescence clones counted
Type: cell-based
Settings: for induction of pluripotent stem cells with only SO, KO or Oct4: Jhdm1a and Jhdm1b together, mES medium with 50 μg/ml vitamin C, FIG. 3; for induction of pluripotent stem cells with only SO, KO or Oct4 / efficiency of reprogramming (inducing pluripotent stem cells) mediated by SKO / efficiency of reprogramming (inducing pluripotent stem cells) mediated by SKOM: control pMXs-FLAG empty vector; for efficiency of reprogramming (inducing pluripotent stem cells) mediated by SKO: with Klf4, Sox2, Oct4 (SKO); for efficiency of reprogramming (inducing pluripotent stem cells) mediated by SKO / efficiency of reprogramming (inducing pluripotent stem cells) mediated by SKOM: whether vitamin C present or not; for efficiency of reprogramming (inducing pluripotent stem cells) mediated by SKOM: with Klf4, Sox2, c-Myc, Oct4 (SKOM)

Row | Molecule | effect of vitamin C on reprogramming by Oct4 with Jhdm1b (Oct4 + Jhdm1b (OB), vitamin C present) | effect of vitamin C on improvement of reprogramming efficiency, SKO (SKO plus Jhdm1a or Jhdm1b, vitamin C in inducing medium (50 μg/mL), FIG. 1) | effect of vitamin C on improvement of reprogramming efficiency, SKOM (SKOM plus Jhdm1a or Jhdm1b, vitamin C in inducing medium (50 μg/mL), FIG. 2) | induction of pluripotent stem cells with only SO, KO or Oct4 | efficiency of reprogramming (inducing pluripotent stem cells) mediated by SKO (FIG. 1) | efficiency of reprogramming (inducing pluripotent stem cells) mediated by SKOM (FIG. 2) | completion of reprogramming by combination with Oct4 alone (Oct4 + Jhdm1b (OB), common culture medium without vitamin C)
1 | O=C1O[C@H]([C@@H](O)CO)C(O)=C1O [vitamin C, reference compound] | achieves more significant effects | the improvement was more significant | the improvement was more significant | – | – | – | –
2 | Jhdm1a: member of the JmjC-domain-containing histone demethylase family, expressed from pMXs-FLAG retroviral vector (SEQ ID NO: 1 / 7) (protein, FLAG tag; nucleotide acid sequence of coding regions for kdm2a) MEPEEERIRYSQRLRGTMRRRYEDDGISDDEIEGKRTFDLEEKLQTNKYNANFVTFMEGKDFNVEYIQRGGLRDPLIFKNSDGLGIKMPDPDFTVNDVKMCVGSRRMVDVMDVNTQKGIEMTMAQWTRYYETPEEEREKLYNVISLEFSHTRLENMVQRPSTVDFIDWVDNMWPRHLKESQTESTNAILEMQYPKVQKYCLMSVRGCYTDFHVDFGGTSVWYHIHQGGKVFWLIPPTAHNLELYENWLLSGKQGDIFLGDRVSDCQRIELKQGYTFVIPSGWIHAVYTPTDTLVFGGNFLHSFNIPMQLKIYSIEDRTRVPNKFRYPFYYEMCWYVLERYVYCITNRSHLTKDFQKESLSMDMELNELESGNGDEEGVDREARRMNNKRSVLTSPVANGVNLDYDGLGKACRSLPSLKKTLSGDSSSDSTRGSHNGQVWDPQCSPKKDRQVHLTHFELEGLRCLVDKLESLPLHKKCVPTGIEDEDALIADVKILLEELASSDPKLALTGVPIVQWPKRDKLKFPTRPKVRVPTIPITKPHTMKPAPRLTPVRPAAASPIVSGARRRRVRCRKCKACVQGECGVCHYCRDMKKFGGPGRMKQSCVLRQCLAPRLPHSVTCSLCGEVDQNEETQDFEKKLMECCICNEIVHPGCLQMDGEGLLNEELPNCWECPKCYQEDSSDKAQKRKIEESDEEAVQAKVLRPLRSCEEPLTPPPHSPTSMLQLIHDPVSPRGMVTRSSPGAGPSDHHSASRDERFKRRQLLRLQATERTMVREKENNPSGKKELSEVEKAKIRGSYLTVTLQRPTKELHGTSIVPKLQAITASSANLRPNPRVLMQHCPARNPQHGDEEGLGGEEEEEEEEEEDDSAEEGGAARLNGRGSWAQDGDESWMQREVWMSVFRYLSRKELCECMRVCKTWYKWCCDKRLWTKIDLSRCKAIVPQALSGIIKRQPVSLDLSWTNISKKQLTWLVNRLPGLKDLLLAGCSWSAVSALSTSSCPLLRTLDLRWAVGIKDPQIRDLLTPPTDKPGQDNRSKLRNMTDFRLAGLDITDATLRLIIRHMPLLSRLDLSHCSHLTDQSSNLLTAVGSSTRYSLTELNMAGCNKLTDQTLFFLRRIANVTLIDLRGCKQITRKACEHFISDLSINSLYCLSDEKLIQKIS | – | – | – | acted together to enable the induction of pluripotent stem cells | obviously improved the efficiency of reprogramming | obviously improved the efficiency of reprogramming | –
3 | Jhdm1b: member of the JmjC-domain-containing histone demethylase family, expressed from pMXs-FLAG retroviral vector (SEQ ID NO: 2 / 8) (protein, FLAG tag; nucleotide acid sequence of coding regions for kdm2b) MEAEKDSGRRLRAIDRQRYDENEDLSDVEEIVSVRGFSLEEKLRSQLYQGDFVHAMEGKDFNYEYVQREALRVPLVFRDKDGLGIKMPDPDFTVRDVKLLVGSRRLVDVMDVNTQKGTEMSMSQFVRYYETPEAQRDKLYNVISLEFSHTKLEHLVKRPTVVDLVDWVDNMWPQHLKEKQTEATNALAEMKYPKVKKYCLMSVKGCFTDFHIDFGGTSVWYHVFRGGKIFWLIPPTLHNLALYEEWVLSGKQSDIFLGDRVERCQRIELKQGYTFFIPSGWIHAVYTPVDSLVFGGNILHSFNVPMQLRIYEIEDRTRVQPKFRYPFYYEMCWYVLERYVYCVTQRSYLTQEYQRELMLIDAPRKTSVDGFSSDSWLDMEEESCEQQPQEEEEEEEDKEEEGDGADKTPKPPTDDPTSPTSTPPEDQDSTGKKPKAPAIRFLKRTLSNESEESVKSTSMPTDDPKTPTGSPATEVSTKWTHLTEFELKGLKALVEKLESLPENKKCVPEGIEDPQALLEGVKNVLKEHVDDDPTLAITGVPVVSWPKKTAKNRVVGRPKGKLGPASAVKLAANRTTAGARRRRTRCRKCEACLRTECGECHFCKDMKKFGGPGRMKQSCIMRQCIAPVLPHTAVCLVCGEAGKEDTVEEEEGKFNLMLMECSICNEIIHPGCLKIKESEGVVNDELPNCWECPKCNHAGKTGKQKRGPGFKYASNLPGSLLKEQKMNRDNKEGQEPAKRRSECEEAPRRRSDEHPKKVPADGILRRKSDDVHLRRKRKYEKPQELSGRKRASSLQTSPGSSSHLSPRPPLGSSLSPWWRSSLTYFQQQLKPGKEDKLFRKKRRSWKNAEDRLSLANKPLRRFKQEPEDDLPEAPPKTRESDQSRSSSPTAGPSTEGAEGPEEKKKVKMRRKRRLVNKELSKELSKELNHEIQKTESTLAHESQQPIKSEPESENDEPKRPLSHCERPHRFSKGLNGTPRELRHSLGPGLRSPPRVMSRPPPSASPPKCIQMERHVIRPPPISPPPDSLPLDDGAAHVMHREVWMAVFSYLSHRDLCVCMRVCRTWNRWCCDKRLWTRIDLNRCKSITPLMLSGIIRRQPVSLDLSWTNISKKQLSWLINRLPGLRDLVLSGCSWIAVSALCSSSCPLLRTLDVQWVEGLKDAQMRDLLSPPTDNRPGQMDNRSKLRNIVELRLAGLDITDVSLRLIIRHMPLLSKLQLSYCNHINDQSINLLTAVGTTTRDSLTEVNLSDCNKVTDLCLSFFKRCGNICHIDLRYCKQVTKEGCEQFIAEMSVSVQFGQVEEKLLQKLS | – | – | – | acted together to enable the induction of pluripotent stem cells | obviously improved the efficiency of reprogramming | obviously improved the efficiency of reprogramming | can complete reprogramming in a common culture medium
